In patent US20170145391:

Tests used:
[1] = molecular target: 4E-BP1 (Calbiochem), Q13541
[2] = molecular target: His-S6K1C, P23443
Chain of His-S6K1C, P23443 (P23443 332-502): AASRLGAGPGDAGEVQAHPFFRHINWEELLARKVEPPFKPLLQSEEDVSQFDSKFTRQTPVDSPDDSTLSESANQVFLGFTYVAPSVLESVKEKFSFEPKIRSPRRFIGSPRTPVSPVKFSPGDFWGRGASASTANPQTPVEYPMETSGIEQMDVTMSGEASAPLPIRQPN

Chain of 4E-BP1 (Calbiochem), Q13541 (Q13541 whole entry): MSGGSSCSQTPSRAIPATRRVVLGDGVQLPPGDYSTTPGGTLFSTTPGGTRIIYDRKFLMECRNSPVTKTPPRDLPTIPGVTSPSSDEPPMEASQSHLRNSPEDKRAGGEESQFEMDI

B1: FLAG-mTORβ (protein)
chain: MLGTGPAAATTAATTSSNVSVLQKKVTEDLSKTLLMYTVPAVQGFFRSISLSRGNNLQDTLRVLTLWFDYGHWPDVNEALVEGVKAIQIDTWLQVIPQLIARIDTPRPLVGRLIHQLLTDIGRYHPQALIYPLTVASKSTTTARHNAANKILKNMCEHSNTLVQQAMMVSEELIRVAILWHEMWHEGLEEASRLYFGERNVKGMFEVLEPLHAMMERGPQTLKETSFNQAYGRDLMEAQEWCRKYMKSGNVKDLTQAWDLYYHVFRRISKQLPQLTSLELQYVSPKLLMCRDLELAVPGTYDPNQPIIRIQSIAPSLQVITSKQRPRKLTLMGSNGHEFVFLLKGHEDLRQDERVMQLFGLVNTLLANDPTSLRKNLSIQRYAVIPLSTNSGLIGWVPHCDTLHALIRDYREKKKILLNIEHRIMLRMAPDYDHLTLMQKVEVFEHAVNNTAGDDLAKLLWLKSPSSEVWFDRRTNYTRSLAVMSMVGYILGLGDRHPSNLMLDRLSGKILHIDFGDCFEVAMTREKFPEKIPFRLTRMLTNAMEVTGLDGNYRITCHTVMEVLREHKDSVMAVLEAFVYDPLLNWRLMDTNTKGNKRSRTRTDSYSAGQSVEILDGVELGEPAHKKTGTTVPESIHSFIGDGLVKPEALNKKAIQIINRVRDKLTGRDFSHDDTLDVPTQVELLIKQATSHENLCQCYIGWCPFW
[1]
  mTOR in vitro kinase assay; immunoblot with phosphospecific antibody pS65-4E-BP1: mTORβ can phosphorylate both S6K1 and 4E-BP1 in vitro, but to a lesser extent than mTORα
[2]
  mTOR in vitro kinase assay; immunoblot with phosphospecific antibody pT389-S6K1: mTORβ can phosphorylate both S6K1 and 4E-BP1 in vitro, but to a lesser extent than mTORα
